Measured values from patent US20240360194A1, “New Peptides as Potent and Selective GIP Receptor Agonists” (Sanofi, priority 2021, published 2024).
≈ marks a conversion by molar mass, not a printed value. Numbered stars: 1 amine (or outer) side, 2 acyl side, 3 side chain; on linkers, the order of the positions; unused ones are H or OH. Square brackets hold non-standard residues; d marks the D form. Side chains are listed from the residue outwards. Ends that are not written are not given here. Peptide text beside a SMILES is read from it. * marks the point of attachment. C18 diacid = O=C(O)CCCCCCCCCCCCCCCCC(=O)*; γGlu = O=C(O)[C@H](CCC(=O)[*:2])N[*:1]; αMeF = C[C@](N)(Cc1ccccc1)C(=O)O; hLeu = CC(C)CC[C@H](N)C(=O)O; AEEA = NCCOCCOCC(=O)O; Aib = CC(C)(N)C(=O)O

T1: human GIP receptor (Homo sapiens, UniProt P48546)
T1 construct: human adipocytes endogenously expressing the human GIP receptor; host or cells: human preadipocytes (Lonza) differentiated to adipocytes
T1 sequence (P48546 22-466): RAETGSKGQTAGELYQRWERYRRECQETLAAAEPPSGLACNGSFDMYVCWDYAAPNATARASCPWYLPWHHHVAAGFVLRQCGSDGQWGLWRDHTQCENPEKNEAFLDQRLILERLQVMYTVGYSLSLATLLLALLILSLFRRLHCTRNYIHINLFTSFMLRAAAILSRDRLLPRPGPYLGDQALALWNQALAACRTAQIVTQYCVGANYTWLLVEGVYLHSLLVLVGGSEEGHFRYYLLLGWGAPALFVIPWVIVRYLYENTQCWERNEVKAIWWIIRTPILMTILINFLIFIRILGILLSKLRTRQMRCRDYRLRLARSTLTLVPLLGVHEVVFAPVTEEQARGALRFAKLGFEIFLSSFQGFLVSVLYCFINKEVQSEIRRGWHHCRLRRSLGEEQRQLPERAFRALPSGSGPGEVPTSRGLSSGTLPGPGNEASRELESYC

T2: human GIP receptor (hGIPR) (Homo sapiens, UniProt P48546)
T2 sequence (P48546 22-466): T1 sequence (P48546 22-466)

T3: human GIP receptor (human, UniProt P48546 22-466)
T3 sequence (looked up): T1 sequence (P48546 22-466)

B1: SEQ ID NO: 19 (peptide)
peptide: Y[Aib]EGTFISDLSI[Aib]K([AEEA-AEEA-γGlu-C18 diacid])EEIHQ[Aib]EFIEWLLAQGPSSGAPPPS-NH2
modifications: N-terminus assumed
SMILES: CC[C@H](C)[C@H](NC(=O)[C@H](CCC(=O)O)NC(=O)[C@H](CCC(=O)O)NC(=O)[C@H](CCCCNC(=O)COCCOCCNC(=O)COCCOCCNC(=O)CC[C@H](NC(=O)CCCCCCCCCCCCCCCCC(=O)O)C(=O)O)NC(=O)C(C)(C)NC(=O)[C@@H](NC(=O)[C@H](CO)NC(=O)[C@H](CC(C)C)NC(=O)[C@H](CC(=O)O)NC(=O)[C@H](CO)NC(=O)[C@@H](NC(=O)[C@H](Cc1ccccc1)NC(=O)[C@@H](NC(=O)CNC(=O)[C@H](CCC(=O)O)NC(=O)C(C)(C)NC(=O)[C@@H](N)Cc1ccc(O)cc1)[C@@H](C)O)[C@@H](C)CC)[C@@H](C)CC)C(=O)N[C@@H](Cc1c[nH]cn1)C(=O)N[C@@H](CCC(N)=O)C(=O)NC(C)(C)C(=O)N[C@@H](CCC(=O)O)C(=O)N[C@@H](Cc1ccccc1)C(=O)N[C@H](C(=O)N[C@@H](CCC(=O)O)C(=O)N[C@@H](Cc1c[nH]c2ccccc12)C(=O)N[C@@H](CC(C)C)C(=O)N[C@@H](CC(C)C)C(=O)N[C@@H](C)C(=O)N[C@@H](CCC(N)=O)C(=O)NCC(=O)N1CCC[C@H]1C(=O)N[C@@H](CO)C(=O)N[C@@H](CO)C(=O)NCC(=O)N[C@@H](C)C(=O)N1CCC[C@H]1C(=O)N1CCC[C@H]1C(=O)N1CCC[C@H]1C(=O)N[C@@H](CO)C(N)=O)[C@@H](C)CC
notes: Synthetic peptide, 39 residues
B2: SEQ ID NO: 34 (peptide)
peptide: H-Y[Aib]EGTFISD[hLeu]SI[Aib]K([AEEA-AEEA-γGlu-C18 diacid])DRIHQEEFIEWLLAQGPSSGAPPPS-NH2
SMILES: CC[C@H](C)[C@H](NC(=O)[C@H](Cc1ccccc1)NC(=O)[C@H](CCC(=O)O)NC(=O)[C@H](CCC(=O)O)NC(=O)[C@H](CCC(N)=O)NC(=O)[C@H](Cc1c[nH]cn1)NC(=O)[C@@H](NC(=O)[C@H](CCCNC(=N)N)NC(=O)[C@H](CC(=O)O)NC(=O)[C@H](CCCCNC(=O)COCCOCCNC(=O)COCCOCCNC(=O)CC[C@H](NC(=O)CCCCCCCCCCCCCCCCC(=O)O)C(=O)O)NC(=O)C(C)(C)NC(=O)[C@@H](NC(=O)[C@H](CO)NC(=O)[C@H](CCC(C)C)NC(=O)[C@H](CC(=O)O)NC(=O)[C@H](CO)NC(=O)[C@@H](NC(=O)[C@H](Cc1ccccc1)NC(=O)[C@@H](NC(=O)CNC(=O)[C@H](CCC(=O)O)NC(=O)C(C)(C)NC(=O)[C@@H](N)Cc1ccc(O)cc1)[C@@H](C)O)[C@@H](C)CC)[C@@H](C)CC)[C@@H](C)CC)C(=O)N[C@@H](CCC(=O)O)C(=O)N[C@@H](Cc1c[nH]c2ccccc12)C(=O)N[C@@H](CC(C)C)C(=O)N[C@@H](CC(C)C)C(=O)N[C@@H](C)C(=O)N[C@@H](CCC(N)=O)C(=O)NCC(=O)N1CCC[C@H]1C(=O)N[C@@H](CO)C(=O)N[C@@H](CO)C(=O)NCC(=O)N[C@@H](C)C(=O)N1CCC[C@H]1C(=O)N1CCC[C@H]1C(=O)N1CCC[C@H]1C(=O)N[C@@H](CO)C(N)=O
notes: as for B1
B3: SEQ ID NO: 32 (peptide)
peptide: H-Y[Aib]EGTFISDLSI[Aib]K([AEEA-AEEA-γGlu-C18 diacid])DRIHQEE[αMeF]IEWLLAQGPSSGAPPPS-NH2
SMILES: CC[C@H](C)[C@H](NC(=O)[C@H](CCCNC(=N)N)NC(=O)[C@H](CC(=O)O)NC(=O)[C@H](CCCCNC(=O)COCCOCCNC(=O)COCCOCCNC(=O)CC[C@H](NC(=O)CCCCCCCCCCCCCCCCC(=O)O)C(=O)O)NC(=O)C(C)(C)NC(=O)[C@@H](NC(=O)[C@H](CO)NC(=O)[C@H](CC(C)C)NC(=O)[C@H](CC(=O)O)NC(=O)[C@H](CO)NC(=O)[C@@H](NC(=O)[C@H](Cc1ccccc1)NC(=O)[C@@H](NC(=O)CNC(=O)[C@H](CCC(=O)O)NC(=O)C(C)(C)NC(=O)[C@@H](N)Cc1ccc(O)cc1)[C@@H](C)O)[C@@H](C)CC)[C@@H](C)CC)C(=O)N[C@@H](Cc1c[nH]cn1)C(=O)N[C@@H](CCC(N)=O)C(=O)N[C@@H](CCC(=O)O)C(=O)N[C@@H](CCC(=O)O)C(=O)N[C@@](C)(Cc1ccccc1)C(=O)N[C@H](C(=O)N[C@@H](CCC(=O)O)C(=O)N[C@@H](Cc1c[nH]c2ccccc12)C(=O)N[C@@H](CC(C)C)C(=O)N[C@@H](CC(C)C)C(=O)N[C@@H](C)C(=O)N[C@@H](CCC(N)=O)C(=O)NCC(=O)N1CCC[C@H]1C(=O)N[C@@H](CO)C(=O)N[C@@H](CO)C(=O)NCC(=O)N[C@@H](C)C(=O)N1CCC[C@H]1C(=O)N1CCC[C@H]1C(=O)N1CCC[C@H]1C(=O)N[C@@H](CO)C(N)=O)[C@@H](C)CC
notes: as for B1

Assays:
[1] = Chemical stability assessment (UHPLC-UV purity loss on storage in solution); format: physicochemical; settings: Chemical stability buffer system A: 20 mM phosphate buffer pH 7.4; ~300 μM
Method: Purity of a peptide batch was determined through UHPLC/MS prior to chemical stability measurement. The target concentration was 300 μM pure compound. Solutions from solid samples were prepared in the following buffer systems with a concentration of ˜300 μM compound based on the previously determined % purity: • Chemical stability buffer system A) 20 mM phosphate buffer pH 7.4, • Chemical stability buffer system B) 8 mM phosphate buffer pH 7.4, 14 mg/ml propylene glycol, 5.5 mg/ml phenol • Chemical stability buffer system C) 100 mM phosphate buffer pH 7.4, 2.7 mg/ml m-cresol
Prepared solutions were filtered through […] pore size and filled into sterilized glass containers under laminar flow conditions.
Glass containers were stored for 28 days at 5 and 40° C. After this time, the samples were centrifuged for 15 min at 2500 RCF. Then 1.5 μl of the undiluted supernatant were analysed with UHPLC-UV.
The chemical stability was rated through the relative loss of purity calculated by the equation: […]
The purity is calculated as
The analytical methods used were Analytical UHPLC Method B or C.
Peptide samples were prepared in Chemical stability buffer system A or B and stability was assessed as described in Methods.

[2] = Solubility assessment (UHPLC-UV of supernatant, target 10 mg/ml); format: physicochemical
Method in brief: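 Peptides at 10 mg/ml (purity-corrected) in 100 mM phosphate pH 7.4, optionally with 2.7 mg/ml m-cresol; gentle agitation 1 h, then 5° C. overnight (24 h). Supernatant after 15 min centrifugation at 2500 RCF quantified by UHPLC-UV, with sequence-based extinction coefficients.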

[3] = molecular target: human GLP-1 receptor (hGLP-1R) (Homo sapiens, UniProt P43220); assay: In vitro cellular cAMP assay for GLP-1 receptor efficacy (HEK-293 cell line over-expressing receptor); format: cell-based; settings: HEK-293, 0.1% BSA
human GIP receptor [4] = molecular target: T1, human GIP receptor; assay: In vitro cellular cAMP assay for GIP receptor efficacy (human adipocytes); format: cell-based; settings: read-out: hGIPR Emax
Method in brief: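 Human preadipocytes expanded, then differentiated 6 days (insulin, dexamethasone, PPARγ agonist, 200 μM IBMX, L-thyroxine) before plating at 5000 cells/well. Test compound applied 30 min at room temperature; cAMP measured by HTRF after 1 h with lysis-buffer reagents, read as 665/620 nm fluorescence ratio.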

[5] = molecular target: T2, human GIP receptor (hGIPR); assay: Binding assay, displacement of [125I]GIP from HEK-293 membranes over-expressing GIPR (SPA); settings: [125I]GIP displacement
Method in brief: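 Membranes from HEK-293 cells over-expressing human GIPR or GLP-1R, isolated by homogenising, sonicating and ultracentrifuging at 100000×g into HEPES/EDTA/NaCl buffer with protease inhibitors, were used for binding.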

human GIP receptor [6] = molecular target: T3, human GIP receptor; assay: cell-based or functional assay
human GLP-1 receptor [7] = molecular target: T4, human GLP-1 receptor (human, UniProt P43220 24-463); assay: cell-based or functional assay
human GIP receptor [8] = molecular target: T3, human GIP receptor; assay: cell-based or functional assay; remark: listed apart in the source
human GIP receptor [9] = molecular target: T3, human GIP receptor; assay: displacement of [125I]GIP from HEK-293 membranes expressing hGIPR (SPA beads)
human GLP-1 receptor [10] = molecular target: T4, human GLP-1 receptor; assay: displacement of [125I]GLP-1 from HEK-293 membranes expressing hGLP-1R (SPA beads)

Sequence of human GLP-1 receptor (hGLP-1R) (P43220 24-463): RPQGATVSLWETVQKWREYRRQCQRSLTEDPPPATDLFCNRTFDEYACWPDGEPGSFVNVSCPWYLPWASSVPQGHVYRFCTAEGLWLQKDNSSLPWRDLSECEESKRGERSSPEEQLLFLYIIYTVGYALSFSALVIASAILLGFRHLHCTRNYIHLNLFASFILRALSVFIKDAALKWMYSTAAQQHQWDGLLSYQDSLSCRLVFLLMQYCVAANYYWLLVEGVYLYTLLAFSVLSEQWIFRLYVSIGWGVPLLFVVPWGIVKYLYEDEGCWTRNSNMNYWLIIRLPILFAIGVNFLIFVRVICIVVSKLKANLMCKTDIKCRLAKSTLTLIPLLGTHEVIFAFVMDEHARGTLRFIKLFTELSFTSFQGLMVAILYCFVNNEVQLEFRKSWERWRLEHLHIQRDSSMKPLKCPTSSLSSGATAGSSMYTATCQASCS

Row | Molecule | Relative purity loss over 28 days at 40° C. [1] [%] | Soluble amount ([2]; 24 h, pH 7.4) [mg/mL] | solubility at 24 h ([2]; pH 7.4, Soluble amount) [µg/mL] | EC50 [3] [nM] | Emax (human GIP receptor [4]) [%] | IC50 [5] [nM] | EC50 hGIPR 0% HSA (cAMP, HEK-293) (human GIP receptor [6]) [nM] | EC50 hGIPR 0.1% BSA (cAMP, HEK-293) (human GIP receptor [6]) [nM] | EC50 hGIPR 0.1% HSA (cAMP, HEK-293) (human GIP receptor [6]) [nM] | EC50 hGLP-1R 0.1% BSA (cAMP, HEK-293) (human GLP-1 receptor [7]) [nM] | hGIPR EC50 (cAMP, human adipocytes) (human GIP receptor [8]) [nM] | hGIPR Emax (cAMP, human adipocytes) (human GIP receptor [8]) [%] | IC50 (human GIP receptor [9]) [nM] | IC50 (human GLP-1 receptor [10]) [nM]
1 | CC[C@H](C)[C@H](NC(=O)[C@H](CCCNC(=N)N)NC(=O)[C@H](CC(=O)O)NC(=O)[C@H](CCCCNC(=O)COCCOCCNC(=O)COCCOCCNC(=O)CC[C@H](NC(=O)CCCCCCCCCCCCCCCCC(=O)O)C(=O)O)NC(=O)C(C)(C)NC(=O)[C@@H](NC(=O)[C@H](CO)NC(=O)[C@H](CC(C)C)NC(=O)[C@H](CC(=O)O)NC(=O)[C@H](CO)NC(=O)[C@@H](NC(=O)[C@H](Cc1ccccc1)NC(=O)[C@@H](NC(=O)CNC(=O)[C@H](CCC(=O)O)NC(=O)C(C)(C)NC(=O)[C@@H](N)Cc1ccc(O)cc1)[C@@H](C)O)[C@@H](C)CC)[C@@H](C)CC)C(=O)N[C@@H](Cc1c[nH]cn1)C(=O)N[C@@H](CCC(N)=O)C(=O)NC(C)(C)C(=O)N[C@@H](CCC(=O)O)C(=O)N[C@@H](Cc1ccccc1)C(=O)N[C@H](C(=O)N[C@@H](CCC(=O)O)C(=O)N[C@@H](Cc1c[nH]c2ccccc12)C(=O)N[C@@H](CC(C)C)C(=O)N[C@@H](CC(C)C)C(=O)N[C@@H](C)C(=O)N[C@@H](CCC(N)=O)C(=O)N[C@@H](CCC(=O)O)C(=O)N1CCC[C@H]1C(=O)N[C@@H](CO)C(=O)N[C@@H](CO)C(=O)NCC(=O)N[C@@H](C)C(=O)N1CCC[C@H]1C(=O)N1CCC[C@H]1C(=O)N1CCC[C@H]1C(=O)N[C@@H](CO)C(N)=O)[C@@H](C)CC [SEQ ID NO: 29, H2N-Y-Aib-E-G-T-F-I-S-D-L-S-I-Aib-K[{AEEA}2-gGlu-C18OH]-D-R-I-H-Q-Aib-E-F-I-E-W-L-L-A-Q-E-P-S-S-G-A-P-P-P-S-NH2] (H-Y[Aib]EGTFISDLSI[Aib]K([AEEA-AEEA-γGlu-C18 diacid])DRIHQ[Aib]EFIEWLLAQEPSSGAPPPS-NH2) | 5.6 | 9.1 | 8000 (≈ 1590 µM) | > 10 | 119 | 0.2 |  |  |  |  |  |  |  | 
2 | B1 |  |  |  |  |  |  | 0.0002 | 0.0378 | 0.0015 | > 10 | 8 | 94 | 2 | 
3 | B2 |  |  |  |  |  |  | 0.00022 | 0.0335 |  | > 10 | 0.5 | 112 |  | 195
4 | B3 |  |  |  |  |  |  | 0.00096 | 0.119 |  | > 10 | 0.6 | 109 |  | 650
